Assay results as given in publication doi:10.1101/2025.09.16.676457 (bioRxiv, 2025).

Biological target: T1, sLgBiT-Lc-GPR25 (without coexpression of TPST1 and TPST2) (Latimeria chalumnae (coelacanth), UniProt H3AQL3 1-365)
T1 sequence (looked up): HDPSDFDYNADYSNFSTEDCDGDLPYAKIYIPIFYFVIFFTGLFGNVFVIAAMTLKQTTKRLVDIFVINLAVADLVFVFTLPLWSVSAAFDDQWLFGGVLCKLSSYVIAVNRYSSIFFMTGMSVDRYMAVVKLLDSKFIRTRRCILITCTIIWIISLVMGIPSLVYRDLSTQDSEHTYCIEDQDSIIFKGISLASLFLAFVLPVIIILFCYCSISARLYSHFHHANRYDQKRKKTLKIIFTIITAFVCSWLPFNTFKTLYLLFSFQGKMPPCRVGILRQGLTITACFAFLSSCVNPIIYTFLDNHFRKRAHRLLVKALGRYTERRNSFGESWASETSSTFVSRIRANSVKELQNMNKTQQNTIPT
Experiment: split reporter

B1: 6×His-Hs-CXCL17 (ligand, human, UniProt Q6UXB2 22-119, looked up)
chain: SSLNPGVARGHRDRGQASRRWLQEGGQECECKDWFLRAPRRKFMTVSGLPKKQCPCDHFKGNVKKTRHQRHHRKPNKHSRACQQFLKQCQLRSFALPL
IC50: ~400 nM
